{"source": "the supplement of paper PMC9732359", "note": "± gives the uncertainty stated by the source.", "data": [{"test": "protein stability index of a GFP-peptide fusion (yeast GPS) (PSI 1-4); higher = more stable; sorted into four equal gates, so the index is relative within each strain", "details": "doa10∆", "procedure,_shortened": "(§1)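 For each peptide, the protein stability index sums the read frequency in every gate after multiplying it by the gate number. Read frequencies came from plasmids that were PCR-amplified from each gate and Illumina-sequenced, with reads assigned to strains by barcodes. The gates were four equal bins of GFP/Cherry fluorescence ratio applied to mid-log yeast in leucine-free medium carrying a pooled library of tiled 17-residue yeast protein peptides fused downstream of GFP on a Cherry-expressing plasmid.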", "values": [{"sequence": "LLTVEEGQLKPGDGSSY [RPC25]", "protein stability index": "3.43 ± 0.15"}, {"sequence": "LLWTPKKLEITSDGALS [RPR2]", "protein stability index": "2.09 ± 0.047"}, {"sequence": "LMAQIFFGPTYYQRLRH [RPB2]", "protein stability index": "2.02 ± 0.035"}, {"sequence": "LMEASDAFRVHICGICG [RPB2]", "protein stability index": "2.08 ± 0.062"}, {"sequence": "LMEIHNILKVDSNSSSS [RGR1]", "protein stability index": "2.58 ± 0.06"}, {"sequence": "LMLGSVNLPGGILRRKS [RRP4]", "protein stability index": "1.96 ± 0.058"}, {"sequence": "LMRQGVLGIKVKIMRDP [RPS3]", "protein stability index": "2.4 ± 0.085"}, {"sequence": "LNAKYQSLGLDDLQKFN [ISW2]", "protein stability index": "3.03 ± 0.066"}, {"sequence": "LNCCGSVARVEDHDVHS [IRR1]", "protein stability index": "1.98 ± 0.079"}, {"sequence": "LNEMLNTRKNMSISLES [DIS3]", "protein stability index": "2.66 ± 0.053"}, {"sequence": "LNHILEKSTQLQQKHEL [YGR119C/NUP57]", "protein stability index": "2.52 ± 0.054"}, {"sequence": "LNISPFTFGLTVVQVYD [RPP0]", "protein stability index": "1.31 ± 0.043"}, {"sequence": "LNKEKLGPLFKKIVDDT [IRR1]", "protein stability index": "2.94 ± 0.099"}, {"sequence": "LNLDSEQTVEYMVSRAI [RPN3]", "protein stability index": "3.32 ± 0.23"}, {"sequence": "LNLQFKAKVDDLVLGKP [YLR335W/NUP2]", "protein stability index": "2.85 ± 0.11"}, {"sequence": "LNSYHIKNGRIYFTVPN [RGR1]", "protein stability index": "2.57 ± 0.054"}, {"sequence": "LNVVLDDAMEINGEDPA [SMX2]", "protein stability index": "3.35 ± 0.067"}, {"sequence": "LNWFRTTNMNVNNCIWA [RGR1]", "protein stability index": "2.22 ± 0.057"}, {"sequence": "LNYGNICEPKETLSIFT [YJL039C/NUP192]", "protein stability index": "2.02 ± 0.061"}, {"sequence": "LPAYSGEIGDFFSSDWR [POP1]", "protein stability index": "3.04 ± 0.11"}, {"sequence": "LPFMQNAGPNSNIPNLL [YDL088C/ASM4]", "protein stability index": "2.46 ± 0.037"}, {"sequence": "LPFYAILRSIPDKLLGV [COB]", "protein stability index": "2.59 ± 0.041"}, {"sequence": "LPGTEKGRKTNKYANND [CSL4]", "protein stability index": "3.22 ± 0.12"}, {"sequence": "LPHSPLWELALAFIPNI [YML031W/NDC1]", "protein stability index": "1.36 ± 0.084"}, {"sequence": "LPKYKEKKAASAKQTAP [MED7]", "protein stability index": "2.71 ± 0.095"}, {"sequence": "LPLFYDLLNAASIESAD [IRR1]", "protein stability index": "2.08 ± 0.047"}, {"sequence": "LPLPPSVEWMKVSPSMC [SIN4]", "protein stability index": "1.75 ± 0.055"}, {"sequence": "LPLWHLLNRIPRMYHIG [POP1]", "protein stability index": "3.06 ± 0.17"}, {"sequence": "LPLYEKNTLLERLKQLT [SWP82]", "protein stability index": "2.71 ± 0.16"}, {"sequence": "LPNQIPGEYITTIKAIF [YMR129W/POM152]", "protein stability index": "2.37 ± 0.055"}, {"sequence": "LPRCSKEEFRLMISPKD [RRI2]", "protein stability index": "1.77 ± 0.056"}, {"sequence": "LPSHIISTSDVTRIINS [RPL4A]", "protein stability index": "2.43 ± 0.033"}, {"sequence": "LPTRGTLESLENLVVAD [COR1]", "protein stability index": "2.83 ± 0.059"}, {"sequence": "LPYERHMISQEGIKETQ [SWI1]", "protein stability index": "1.22 ± 0.066"}, {"sequence": "LQEAIDFAQKEINGDDD [PRE10]", "protein stability index": "2.96 ± 0.087"}, {"sequence": "LQEKEQLYFKKKVNYKV [ISW2]", "protein stability index": "2.96 ± 0.15"}, {"sequence": "LQELIVNGPNVHPGANY [RPO31]", "protein stability index": "2.83 ± 0.071"}, {"sequence": "LQHLRSRCHLVTKDTKK [SRP68]", "protein stability index": "2.93 ± 0.11"}, {"sequence": "LQKQMGIGSLTDLMSIV [RPC34]", "protein stability index": "1.91 ± 0.11"}, {"sequence": "LQLAPGAHLGRFVIWTE [RPL4A]", "protein stability index": "3.62 ± 0.21"}, {"sequence": "LQLASLQQKQRDLILKK [SMC3]", "protein stability index": "2.49 ± 0.14"}, {"sequence": "LQNNSDSESDSDSETNH [SKP1]", "protein stability index": "2.76 ± 0.065"}, {"sequence": "LQPVIPGGAASKSVPTP [SNF5]", "protein stability index": "2.93 ± 0.13"}, {"sequence": "LQQELATTQDQVASIIE [NUT2]", "protein stability index": "2.77 ± 0.059"}, {"sequence": "LQQICRVRNKDIRKFLD [RPL9A]", "protein stability index": "2.13 ± 0.074"}, {"sequence": "LQQKQQQRFQALQQQQQ [SWI1]", "protein stability index": "1.35 ± 0.057"}, {"sequence": "LQVLKRERDGIKEDIEK [SMC1]", "protein stability index": "3.06 ± 0.23"}, {"sequence": "LQYIIHDTLNNEIANSI [BRR2]", "protein stability index": "2.67 ± 0.057"}, {"sequence": "LQYYILEYMNTARINNR [RRI2]", "protein stability index": "2.12 ± 0.15"}, {"sequence": "LRELDVELIESKINELS [SMC4]", "protein stability index": "3.37 ± 0.096"}, {"sequence": "LRGSLLSRKPSDNKKRS [RPC82]", "protein stability index": "2.96 ± 0.13"}, {"sequence": "LRIVKPTVSLTINLDRF [RPC82]", "protein stability index": "2.29 ± 0.068"}, {"sequence": "LRKIQALRDVKNNNNAN [GAL11]", "protein stability index": "3.05 ± 0.077"}, {"sequence": "LRLLLLLIEFPYLPKHY [YJR042W/NUP85]", "protein stability index": "1.81 ± 0.052"}, {"sequence": "LRLSNFFTIDHFIQKLH [SIR2]", "protein stability index": "2.32 ± 0.085"}, {"sequence": "LRNKLIESNKLAGVLYE [RRP6]", "protein stability index": "2.72 ± 0.16"}, {"sequence": "LRNVFLGKCSRITDASL [GRR1]", "protein stability index": "2.94 ± 0.066"}, {"sequence": "LRPLFTRYELYIKNILE [YLR335W/NUP2]", "protein stability index": "1.6 ± 0.053"}, {"sequence": "LRRASATVPSAPYRKQI [YAR002W/NUP60]", "protein stability index": "2.72 ± 0.095"}, {"sequence": "LRRVEERFTKSKTLSLI [FAS1]", "protein stability index": "2.31 ± 0.076"}, {"sequence": "LRSDIPCLSRSCTKCPQ [DIS3]", "protein stability index": "2.89 ± 0.04"}, {"sequence": "LRSTIANLLQINVDNDP [YML103C/NUP188]", "protein stability index": "2.21 ± 0.1"}, {"sequence": "LRYVIMKNPDVEFCGYS [RPC19]", "protein stability index": "2.2 ± 0.14"}, {"sequence": "LSAEYLVILKPDLNIDR [SIN4]", "protein stability index": "2.97 ± 0.063"}, {"sequence": "LSAVAQAESMKFKLLNG [RPS3]", "protein stability index": "3.06 ± 0.1"}, {"sequence": "LSEATESDLYKLKECPF [RPB2]", "protein stability index": "3.12 ± 0.11"}, {"sequence": "LSEDELRELDVELIESK [SMC4]", "protein stability index": "3.33 ± 0.18"}, {"sequence": "LSESLTKFFDDAKSTPL [RPN9]", "protein stability index": "3.01 ± 0.07"}, {"sequence": "LSEYDAIQKKDNKDKEG [YOR098C/NUP1]", "protein stability index": "3.35 ± 0.13"}, {"sequence": "LSFGTATSDNKTTNTTP [YJL041W/NSP1]", "protein stability index": "2.21 ± 0.088"}, {"sequence": "LSFINPKTGKVERSEAI [SEC65]", "protein stability index": "3.6 ± 0.17"}, {"sequence": "LSGNPLTSVTNDICSVE [SIR4]", "protein stability index": "2.54 ± 0.068"}, {"sequence": "LSGVSNSMDMVDGMAKV [RGR1]", "protein stability index": "3.48 ± 0.11"}, {"sequence": "LSIAFENGDYAACEKLL [RPN12]", "protein stability index": "3.13 ± 0.17"}, {"sequence": "LSIDKVLKKPNRAMEYD [RET1]", "protein stability index": "3.01 ± 0.18"}, {"sequence": "LSIELEGGKNQAELLQL [YJL039C/NUP192]", "protein stability index": "2.85 ± 0.14"}, {"sequence": "LSLGMDFIKFDQIAVCE [BRN1]", "protein stability index": "3 ± 0.085"}, {"sequence": "LSLQRANVEILAVEDKP [CSL4]", "protein stability index": "1.35 ± 0.054"}, {"sequence": "LSNEFTATNSKGEQIAI [ECM29]", "protein stability index": "3.06 ± 0.11"}, {"sequence": "LSQLCAVPLQIVSPQSN [RPO21]", "protein stability index": "1.88 ± 0.063"}, {"sequence": "LSQSRIKIKSLEYEISK [YIL149C/MLP2]", "protein stability index": "2.08 ± 0.051"}, {"sequence": "LSRPSLPKIKTVRKSIA [RPL35A]", "protein stability index": "1.54 ± 0.06"}, {"sequence": "LSSDDLLGKESFKKIIK [YCS4]", "protein stability index": "3.25 ± 0.19"}, {"sequence": "LSTSEDVSIEELLREWL [IRR1]", "protein stability index": "3.25 ± 0.16"}, {"sequence": "LSVMCGCGTVKRFNIGA [RPR2]", "protein stability index": "3.16 ± 0.21"}, {"sequence": "LSVVKYLLASLKDSKDF [RPN9]", "protein stability index": "2.19 ± 0.12"}, {"sequence": "LTCSLYELYINKLTILG [IRR1]", "protein stability index": "1.36 ± 0.032"}, {"sequence": "LTDKDAFETHYRRLFAK [CDC53]", "protein stability index": "2.94 ± 0.057"}, {"sequence": "LTKKYSFKIFVDVLVIS [RRP42]", "protein stability index": "1.22 ± 0.049"}, {"sequence": "LTLDPRYIWRSLKDLSS [RPN3]", "protein stability index": "2.78 ± 0.14"}, {"sequence": "LTLKEAELLVLKILKQV [PUP2]", "protein stability index": "2.05 ± 0.29"}, {"sequence": "LTLLERKWVIFITKHLP [NUT1]", "protein stability index": "2.59 ± 0.089"}, {"sequence": "LTLQEDYIKDEQRHLKR [RPT3]", "protein stability index": "3.43 ± 0.11"}, {"sequence": "LTNLLSQLNIQLSQDEH [SRP72]", "protein stability index": "3.01 ± 0.048"}, {"sequence": "LTQLLSMMSDGIEHFDI [RPO31]", "protein stability index": "2.93 ± 0.073"}, {"sequence": "LTSDLVYFGDENKVMLP [RRI2]", "protein stability index": "3.21 ± 0.093"}, {"sequence": "LTSGLLYSYLIKENFFE [YJL039C/NUP192]", "protein stability index": "1.9 ± 0.1"}, {"sequence": "LTSVTRHGFNRSNTGAL [RPO21]", "protein stability index": "2.48 ± 0.067"}, {"sequence": "LTTAREHHSSVKYASPN [FAS2]", "protein stability index": "3.02 ± 0.065"}, {"sequence": "LVAIFGGQGNTDDYFEE [FAS1]", "protein stability index": "3.15 ± 0.12"}]}, {"test": "protein stability index of a GFP-peptide fusion (yeast GPS) (PSI 1-4); higher = more stable; sorted into four equal gates, so the index is relative within each strain", "details": "pdr5∆", "procedure,_shortened": "as §1", "values": [{"sequence": "LLTVEEGQLKPGDGSSY [RPC25]", "protein stability index": "3.23 ± 0.24"}]}]}
